Measured values reported in IntAct's records for PubMed 20368419.

B1: Nibrin (Homo sapiens), O60934 (parent)
chain: MWKLLPAAGPAGGEPYRLLTGVEYVVGRKNCAILIENDQSISRNHAVLTANFSVTNLSQTDEIPVLTLKDNSKYGTFVNEEKMQNGFSRTLKSGDGITFGVFGSKFRIEYEPLVACSSCLDVSGKTALNQAILQLGGFTVNNWTEECTHLVMVSVKVTIKTICALICGRPIVKPEYFTEFLKAVESKKQPPQIESFYPPLDEPSIGSKNVDLSGRQERKQIFKGKTFIFLNAKQHKKLSSAVVFGGGEARLITEENEEEHNFFLAPGTCVVDTGITNSQTLIPDCQKKWIQSIMDMLQRQGLRPIPEAEIGLAVIFMTTKNYCDPQGHPSTGLKTTTPGPSLSQGVSVDEKLMPSAPVNTTTYVADTESEQADTWDLSERPKEIKVSKMEQKFRMLSQDAPTVKESCKTSSNNNSMVSNTLAKMRIPNYQLSPTKLPSINKSKDRASQQQQTNSIRNYFQPSTKKRERDEENQEMSSCKSARIETSCSLLEQTQPATPSLWKNKEQHLSENEPVDTNSDNNLFTDTDLKSIVKNSASKSHAAEKLRSNKKREMDDVAIEDEVLEQLFKDTKPELEIDVKVQKQEEDVNVRKRPRMDIETNDTFSDEAVPESSKISQENEIGKKRELKEDSLWSAKEISNNDKLQDDSEMLPKKLLLTEFRSLVIKNSTSRNPSGINDDYGQLKNFKKFKKVTYPGAGKLPHIIGGSDLIAHHARKNTELEEWLRQEMEVQNQHAKEESLADDLFRYNPYLKRRR

Variants of: B1
Details: with pk3cb_human PIK3CB

Row | Variant | effect of a mutation on the interaction
1 | K653A;L654A;L655A;L656A | decreasing interaction
2 | S661A;L662A;V663A | decreasing interaction
